{
  "source": "patent US20070093443",
  "key": {"[1]": {"target": "Complement component C8 (human)", "sequence (chain, as listed by the source, chain 1 of 3)": "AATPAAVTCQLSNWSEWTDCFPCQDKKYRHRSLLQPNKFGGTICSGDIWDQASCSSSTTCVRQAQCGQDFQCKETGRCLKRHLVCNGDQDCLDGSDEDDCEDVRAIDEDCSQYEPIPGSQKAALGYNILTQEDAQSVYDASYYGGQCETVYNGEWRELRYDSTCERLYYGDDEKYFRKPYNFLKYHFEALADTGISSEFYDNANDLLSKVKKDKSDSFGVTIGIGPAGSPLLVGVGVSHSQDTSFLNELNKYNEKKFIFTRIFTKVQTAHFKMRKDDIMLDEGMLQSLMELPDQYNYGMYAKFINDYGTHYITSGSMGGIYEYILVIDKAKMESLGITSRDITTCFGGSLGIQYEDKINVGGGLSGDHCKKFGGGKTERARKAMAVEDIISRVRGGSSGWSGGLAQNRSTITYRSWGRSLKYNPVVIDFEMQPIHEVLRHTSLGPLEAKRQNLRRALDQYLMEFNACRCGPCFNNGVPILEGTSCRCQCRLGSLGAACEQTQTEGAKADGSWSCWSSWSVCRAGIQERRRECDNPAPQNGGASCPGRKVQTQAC", "sequence (chain, as listed by the source, chain 2 of 3)": "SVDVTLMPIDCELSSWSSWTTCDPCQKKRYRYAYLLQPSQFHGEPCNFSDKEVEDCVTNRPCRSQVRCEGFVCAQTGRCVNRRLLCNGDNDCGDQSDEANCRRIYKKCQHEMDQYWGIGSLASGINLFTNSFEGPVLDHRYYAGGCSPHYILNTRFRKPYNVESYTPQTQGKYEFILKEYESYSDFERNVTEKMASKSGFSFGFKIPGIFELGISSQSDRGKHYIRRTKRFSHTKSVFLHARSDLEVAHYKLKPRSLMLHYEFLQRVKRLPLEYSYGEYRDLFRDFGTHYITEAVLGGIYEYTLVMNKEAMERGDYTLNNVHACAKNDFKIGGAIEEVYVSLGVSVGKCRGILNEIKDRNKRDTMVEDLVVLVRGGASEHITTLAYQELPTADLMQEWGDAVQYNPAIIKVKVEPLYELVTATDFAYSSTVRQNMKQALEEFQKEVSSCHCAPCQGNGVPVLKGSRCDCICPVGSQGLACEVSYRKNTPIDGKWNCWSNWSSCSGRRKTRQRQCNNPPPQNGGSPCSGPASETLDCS", "sequence (chain, as listed by the source, chain 3 of 3)": "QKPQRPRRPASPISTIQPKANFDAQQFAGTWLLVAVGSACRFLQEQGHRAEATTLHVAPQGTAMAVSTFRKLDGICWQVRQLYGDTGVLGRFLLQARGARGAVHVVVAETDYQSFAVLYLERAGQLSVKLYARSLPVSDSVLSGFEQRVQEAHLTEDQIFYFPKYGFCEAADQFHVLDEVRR"}, "[2]": {"target": "T1, cynomolgus monkey complement C2 (in plasma of treated monkeys), G8F3W0", "T1 chain": "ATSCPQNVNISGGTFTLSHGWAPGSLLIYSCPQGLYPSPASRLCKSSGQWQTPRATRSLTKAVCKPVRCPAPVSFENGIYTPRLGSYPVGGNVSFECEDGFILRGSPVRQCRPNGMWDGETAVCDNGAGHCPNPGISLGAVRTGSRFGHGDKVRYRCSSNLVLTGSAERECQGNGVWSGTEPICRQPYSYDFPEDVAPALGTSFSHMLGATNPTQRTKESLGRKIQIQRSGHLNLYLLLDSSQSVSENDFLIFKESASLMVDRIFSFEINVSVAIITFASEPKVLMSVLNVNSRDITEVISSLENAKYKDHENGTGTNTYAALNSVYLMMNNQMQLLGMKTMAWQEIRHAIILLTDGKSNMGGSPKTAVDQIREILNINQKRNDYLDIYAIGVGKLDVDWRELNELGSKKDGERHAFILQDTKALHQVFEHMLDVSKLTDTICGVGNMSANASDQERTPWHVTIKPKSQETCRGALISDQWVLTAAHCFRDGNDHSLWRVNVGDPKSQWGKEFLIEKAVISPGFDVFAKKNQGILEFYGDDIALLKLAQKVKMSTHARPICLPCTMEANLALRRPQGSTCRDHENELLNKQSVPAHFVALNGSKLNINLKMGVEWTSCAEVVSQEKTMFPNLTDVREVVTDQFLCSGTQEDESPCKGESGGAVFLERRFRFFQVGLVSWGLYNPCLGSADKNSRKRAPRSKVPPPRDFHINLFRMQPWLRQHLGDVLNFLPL"}, "Complement C2 (human)": {"target": "T2, Complement C2 (human)", "T2 chain": "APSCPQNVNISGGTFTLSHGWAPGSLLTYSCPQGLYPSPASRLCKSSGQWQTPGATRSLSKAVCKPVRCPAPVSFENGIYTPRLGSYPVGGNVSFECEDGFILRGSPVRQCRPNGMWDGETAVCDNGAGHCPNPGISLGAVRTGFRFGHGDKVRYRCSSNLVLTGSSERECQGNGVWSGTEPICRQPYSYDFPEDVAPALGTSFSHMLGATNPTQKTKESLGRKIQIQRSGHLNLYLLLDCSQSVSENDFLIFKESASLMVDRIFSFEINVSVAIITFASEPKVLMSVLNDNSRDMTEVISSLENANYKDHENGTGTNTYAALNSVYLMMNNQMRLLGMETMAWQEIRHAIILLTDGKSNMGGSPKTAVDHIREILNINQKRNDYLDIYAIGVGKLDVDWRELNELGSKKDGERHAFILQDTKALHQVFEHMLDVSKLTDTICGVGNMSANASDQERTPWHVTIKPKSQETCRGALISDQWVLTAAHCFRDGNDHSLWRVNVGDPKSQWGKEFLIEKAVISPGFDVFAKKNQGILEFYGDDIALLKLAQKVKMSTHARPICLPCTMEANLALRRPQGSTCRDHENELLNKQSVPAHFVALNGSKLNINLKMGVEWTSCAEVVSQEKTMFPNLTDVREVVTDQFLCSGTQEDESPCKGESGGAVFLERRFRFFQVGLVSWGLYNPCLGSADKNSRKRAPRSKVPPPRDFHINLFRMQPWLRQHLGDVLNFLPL"}},
  "data": [
    {"protein": "modified MT-SP1 CB252 (Y146E/K224N) protease domain (protein) VVGGTDADEGEWPWQVSLHALGQGHICGASLISPNWLVSAAHCYIDDRGFRYSDPTQWTAFLGLHDQSQRSAPGVQERRLKRIISHPFFNDFTFDYDIALLELEKPAEYSSMVRPICLPDASHVFPAGKAIWVTGWGHTQEGGTGALILQKGEIRVINQTTCENLLPQQITPRMMCVGFLSGGVDSCQGDSGGPLSSVEADGRIFQAGVVSWGDGCAQRNNPGVYTRLPLFRDWIKENTGV", "values": [
      {"measurement": "hemolysis (OD415) by protease-preincubated purified complement protein added back to the corresponding depleted sera", "setting": "[1]", "value": "showed no decreased hemolysis as compared to normal sera or the no protease control"},
      {"measurement": "C2 Western blot of plasma from monkeys dosed IV with 1 or 3 mg/kg protease", "setting": "[2]", "value": "increased cleavage of C2 in plasma from CB252 and CB377 treated monkeys after treatment with 3 mg/kg protease but not after treatment with 1 mg/kg protease ... a greater cleavage of C2 occurred in plasma collected form CB252 treated monkeys as compared to CB377 treated monkeys at all time points tes"},
      {"measurement": "C2 Western blot of plasma from monkeys dosed with 1 mg/kg CB252 IV", "setting": "[2]", "value": "Plasma from monkeys treated with 1 mg/kg CB252 had no discernable C2 cleavage"},
      {"measurement": "average extent of degradation of C2 (densitometry of C2 Western blots), 5 minutes after 3 mg/kg CB252 IV", "setting": "[2]", "value": 60, "unit": "% degraded at 5 minutes"},
      {"measurement": "average extent of degradation of C2 (densitometry of C2 Western blots), 30 minutes after 3 mg/kg CB252 IV", "setting": "[2]", "value": 50, "unit": "% degraded at 30 minutes"},
      {"measurement": "average extent of degradation of C2 (densitometry of C2 Western blots), 60 minutes after 3 mg/kg CB252 IV", "setting": "[2]", "value": 40, "unit": "% degraded at 60 minutes"},
      {"measurement": "percent C2 cleavage (Western blot densitometry), plasma of animal 2, 5 minutes after 3 mg/kg CB252 IV", "setting": "[2]", "value": 62, "unit": "%"},
      {"measurement": "percent C2 cleavage (Western blot densitometry), plasma of animal 2, 30 minutes after 3 mg/kg CB252 IV", "setting": "[2]", "value": 55, "unit": "%"},
      {"measurement": "percent C2 cleavage (Western blot densitometry), plasma of animal 2, 60 minutes after 3 mg/kg CB252 IV", "setting": "[2]", "value": 50, "unit": "%"},
      {"measurement": "percent C2 cleavage (Western blot densitometry), plasma of animal 4, 5 minutes after 3 mg/kg CB252 IV", "setting": "[2]", "value": 55, "unit": "%"},
      {"measurement": "percent C2 cleavage (Western blot densitometry), plasma of animal 4, 30 minutes after 3 mg/kg CB252 IV", "setting": "[2]", "value": 45, "unit": "%"},
      {"measurement": "percent C2 cleavage (Western blot densitometry), plasma of animal 4, 60 minutes after 3 mg/kg CB252 IV", "setting": "[2]", "value": 37, "unit": "%"},
      {"measurement": "percent C2 cleavage (Western blot densitometry), plasma of animal 5, 5 minutes after 3 mg/kg CB252 IV", "setting": "[2]", "value": 65, "unit": "%"},
      {"measurement": "percent C2 cleavage (Western blot densitometry), plasma of animal 5, 30 minutes after 3 mg/kg CB252 IV", "setting": "[2]", "value": 50, "unit": "%"},
      {"measurement": "percent C2 cleavage (Western blot densitometry), plasma of animal 5, 60 minutes after 3 mg/kg CB252 IV", "setting": "[2]", "value": 38, "unit": "%"},
      {"measurement": "cleavage in 90% human plasma by Western blot", "setting": "Complement C2 (human)", "value": "cleaved C2 in human plasma in a dose-dependent manner"},
      {"measurement": "cleavage of purified C2 by 100 nM protease, SDS-PAGE and Coomassie", "setting": "Complement C2 (human)", "value": "C2 was almost completely degraded to yield cleavage products of about 70 kD and 23 kD corresponding to C2a and C2b, respectively"},
      {"measurement": "fraction C5b-9 generated, Total Complement System Screen (classical and MBL pathways), 1 uM protease in human plasma", "setting": "Complement C2 (human)", "value": "the fraction C5b-9 generated upon complement activation induced by the classical and MBL pathways was almost completely inhibited"},
      {"measurement": "hemolysis (OD415) by protease-preincubated purified complement protein added back to the corresponding depleted sera", "setting": "Complement C2 (human)", "value": "resulted in an inhibition of hemolysis as assessed by a reduced OD415 absorbance to levels comparable to the depleted sera control"}
    ]},
    {"protein": "modified MT-SP1 CB377 (Y146E/Q175D/K224N) protease domain (protein) VVGGTDADEGEWPWQVSLHALGQGHICGASLISPNWLVSAAHCYIDDRGFRYSDPTQWTAFLGLHDQSQRSAPGVQERRLKRIISHPFFNDFTFDYDIALLELEKPAEYSSMVRPICLPDASHVFPAGKAIWVTGWGHTQEGGTGALILQKGEIRVINQTTCENLLPQDITPRMMCVGFLSGGVDSCQGDSGGPLSSVEADGRIFQAGVVSWGDGCAQRNNPGVYTRLPLFRDWIKENTGV", "values": [
      {"measurement": "hemolysis (OD415) by protease-preincubated purified complement protein added back to the corresponding depleted sera", "setting": "[1]", "value": "showed no decreased hemolysis as compared to normal sera or the no protease control"},
      {"measurement": "C2 Western blot of plasma from monkeys dosed IV with 1 or 3 mg/kg protease", "setting": "[2]", "value": "increased cleavage of C2 in plasma from CB252 and CB377 treated monkeys after treatment with 3 mg/kg protease but not after treatment with 1 mg/kg protease"},
      {"measurement": "cleavage in 90% human plasma by Western blot", "setting": "Complement C2 (human)", "value": "cleaved C2 in human plasma in a dose-dependent manner"},
      {"measurement": "cleavage of purified C2 by 100 nM protease, SDS-PAGE and Coomassie", "setting": "Complement C2 (human)", "value": "C2 was almost completely degraded to yield cleavage products of about 70 kD and 23 kD corresponding to C2a and C2b, respectively"},
      {"measurement": "fraction C5b-9 generated, Total Complement System Screen (classical and MBL pathways), 1 uM protease in human plasma", "setting": "Complement C2 (human)", "value": "the fraction C5b-9 generated upon complement activation induced by the classical and MBL pathways was almost completely inhibited"},
      {"measurement": "hemolysis (OD415) by protease-preincubated purified complement protein added back to the corresponding depleted sera", "setting": "Complement C2 (human)", "value": "resulted in an inhibition of hemolysis as assessed by a reduced OD415 absorbance to levels comparable to the depleted sera control"}
    ]}
  ]
}
